From publication PMC3737725 (Development (Cambridge, England), 2013)

Target: T1, murine MBP::KSR1 (mouse, UniProt Q61097 1-873)
T1 sequence (looked up): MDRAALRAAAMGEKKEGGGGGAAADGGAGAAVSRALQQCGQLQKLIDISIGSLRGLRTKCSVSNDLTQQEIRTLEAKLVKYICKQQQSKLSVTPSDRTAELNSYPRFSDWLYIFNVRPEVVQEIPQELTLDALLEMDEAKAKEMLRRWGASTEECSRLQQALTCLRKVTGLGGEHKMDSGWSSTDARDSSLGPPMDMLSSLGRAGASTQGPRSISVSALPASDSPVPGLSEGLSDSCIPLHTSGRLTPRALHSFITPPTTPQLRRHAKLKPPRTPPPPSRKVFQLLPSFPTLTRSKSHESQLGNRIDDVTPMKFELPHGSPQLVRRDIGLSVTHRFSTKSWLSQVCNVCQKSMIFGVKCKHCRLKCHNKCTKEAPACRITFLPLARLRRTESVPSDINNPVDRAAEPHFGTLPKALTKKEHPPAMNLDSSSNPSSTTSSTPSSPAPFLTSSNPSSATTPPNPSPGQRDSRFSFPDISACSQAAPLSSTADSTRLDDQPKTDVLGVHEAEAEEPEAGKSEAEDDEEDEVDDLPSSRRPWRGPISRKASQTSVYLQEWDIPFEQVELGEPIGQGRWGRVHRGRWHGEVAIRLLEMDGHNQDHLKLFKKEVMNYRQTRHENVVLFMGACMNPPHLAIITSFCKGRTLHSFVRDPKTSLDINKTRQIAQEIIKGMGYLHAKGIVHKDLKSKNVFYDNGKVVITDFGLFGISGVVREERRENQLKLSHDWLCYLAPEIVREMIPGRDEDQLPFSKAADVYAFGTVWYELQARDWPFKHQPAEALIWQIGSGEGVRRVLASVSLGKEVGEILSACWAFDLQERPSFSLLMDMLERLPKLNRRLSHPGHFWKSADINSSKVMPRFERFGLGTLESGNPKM
Test: pull-down

B1: GST::NDK-1::His6 (natural protein, C. elegans, UniProt Q93576 1-153, looked up)
chain: MSNTERTFIAIKPDGVHRGLVGKIIARFEERGYKLVALKQMTASKAHLEVHYQDLKDKPFFPSLIEYMSSGPVVAMVWQGLDVVKQGRSMLGATNPLASAPGTIRGDFCIQTGRNICHGSDAVDSANREIAHWFKQEEINDYASPFINSWVYE
binding result: binds
